US20250277022A1 (STAIDSON BEIJING BIOPHARMACEUTICALS, published 2025)
One block for each binder: values may come before it.

What was measured:
cynomolgus monkey TSLP [1] = target: T1, cynomolgus monkey TSLP (cynomolgus monkey, UniProt A0A7N9CAT7 29-159); assay: ELISA, plate coated with cynomolgus monkey TSLP
T1 construct: also called cynomolgus TSLP; recombinant cynomolgus monkey TSLP

cynomolgus monkey TSLP [2] = target: T1, cynomolgus monkey TSLP; assay: solution equilibrium titration, MSD electrochemiluminescence
cynomolgus monkey TSLP [3] = target: T1, cynomolgus monkey TSLP; assay: ELISA, plate coated with cynomolgus monkey TSLP, test antibodies as human IgG1
Protocol: (§1) ELISA Screening: Monoclonal scFv antibodies were selected and subjected to ligand binding assays. The first assay was designed to identify scFv antibodies that bound human TSLP and/or cynomolgus TSLP. Briefly, a 96-well plate was coated with human TSLP or cynomolgus TSLP in PBS at 0.1 μg/well and left overnight at 4° C. Before loading the scFv antibodies, the plates were washed with TBST, blocked for 1-2 hours at 37° C. using 5% milk and washed again with TBST. Each scFv sample was first diluted to 40 μg/mL, and 150 μL was added to the first row of wells. The 40 μg/mL scFv samples were then serially diluted at a 1:3 ratio and added to the remaining wells. After incubating for an hour at 37° C., followed by washing with TBST for 6 times, 100 μl of the secondary antibody (HRP labeled mouse anti-flag (1:2500)) was added to each well. After incubation for an hour under 37° C., the plate was washed for 3 times using TBST. TMB was then added at 100 μL/well and incubated for 10-20 minutes at 37° C. 2 M H₂SO₄ was used to stop the reaction. The ELISA results (OD405) were then analyzed and the binding curves were generated by PRISM.

human TSLP [4] = target: T2, human TSLP (human, UniProt Q969D9 29-159); assay: ELISA, plate coated with human TSLP, test antibodies as human IgG1
T2 construct: used biotinylated in some assays; also called hTSLP; recombinant human TSLP
T2 sequence (Q969D9 29-159 R127A/R130S limits assumed): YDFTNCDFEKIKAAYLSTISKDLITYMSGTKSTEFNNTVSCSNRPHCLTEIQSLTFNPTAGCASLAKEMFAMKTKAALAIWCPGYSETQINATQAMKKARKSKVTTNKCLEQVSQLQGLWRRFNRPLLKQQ
Protocol: as §1

human TSLP [5] = target: T2, human TSLP; assay: cell-based or functional assay
human TSLP [6] = target: T2, human TSLP; assay: ELISA, biotin labeled full length TSLP on streptavidin plate; full length isoform TSLP, not short isoform
Protocol: Binding of anti-TSLP antibodies to short form TSLP was determined using an ELISA method. […] A rabbit serum was used as a negative control. Briefly, a 96-well plate was coated with 100 μl of 1 μg/mL streptavidin overnight. The plates were washed with PBST, then 100 μl of 1 μg/ml biotin labeled short TSLP or long TSLP was added to the plates, incubated at 37° C. for 1 hour. […] After incubating the plates for an hour at 37° C., followed by washing with PBST for 6 times, the secondary antibody anti-human-Fc-HRP or anti-rabbit-Fc-AP was added to each well. After incubation for an hour under 37° C., the plate was washed for 3 times using PBST. TMB or pNPP was then added at 100 μL/well and incubated for 10-20 minutes at room temperature. 2 M H₂SO₄ or 3 M NaOH was used to stop the reaction. The ELISA results were then analyzed and the binding curves were generated by GraphPad Prism 5 software (GraphPad Software).

T1 sequence (A0A7N9CAT7 entry or part of it): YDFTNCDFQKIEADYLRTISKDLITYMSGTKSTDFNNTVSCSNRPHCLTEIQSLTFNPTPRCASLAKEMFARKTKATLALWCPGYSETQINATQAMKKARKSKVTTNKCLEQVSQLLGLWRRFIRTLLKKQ

EC50 (read off the curve) (cynomolgus monkey TSLP [1]): ~0.5 µg/mL
Kd (cynomolgus monkey TSLP [2]): 17.6 pM
B1: AMG157 (antibody, V domains shown)
VH: QMQLVESGGGVVQPGRSLRLSCAASGFTFRTYGMHWVRQAPGKGLEWVAVIWYDGSNKHYADSVKGRFTITRDNSKNTLNLQMNSLRAEDTAVYYCARAPQWELVHEAFDIWGQGTMVTVSS
VL: SYVLTQPPSVSVAPGQTARITCGGNNLGSKSVHWYQQKPGQAPVLVVYDDSDRPSWIPERFSGSNSGNTATLTISRGEAGDEADYYCQVWDSSSDHVVFGGGTKLTVLG

EC50 (read off the curve) (cynomolgus monkey TSLP [3]): ~0.5 µg/mL
EC50 (read off the curve) (human TSLP [4]): ~0.03 µg/mL
IC50, inhibition of human TSLP-induced Stat5 activation (Stat5-luciferase reporter, Ba/F3 cells with hTSLPR and hIL7Ra) (human TSLP [5]): 0.0193 µg/mL
EC50 (human TSLP [6]): 0.0335 µg/mL
B2: TSLP-01 (antibody, V domains shown)
VH: QVQLQESGPGLVKPSETLSLTCAVSGYSISSGYGWSWIRQPPGKGLEWIGYISYYGSISYNPSLKSRVTISRDTSKNQFSLKLSSVTAADTAVYYCARTNLLYFDSWGQGTLVTVSS
VL: EIVMTQSPATLSLSPGERATLSCRASQSVSNNLAWYQQKPGQAPRLLIYDASSRATGIPARFSGSGSGTDFTLTISSLEPEDFAVYYCQQYSDWPQYTFGQGTKVEIK
notes: also called parent antibody TSLP-01
